Substitutions are numbered along the chain they refer to.
B1: D1 scFv (scFv)
scFv: EVQLVESGGGVVRPGGSLRLSCAASGFTFDLNPKVKHMWVRQAPGKGLEWVSGINWNGGSTGYADSVKGRFTISRDNAKNSLYLQMNSLRAEDTAVYYCARLRSPFGWGQGTLVTVSRGGGGSGGGGSGGGGSSELTQDPAVSVALGQTVRITCQGDSLRSYYASWYQQKPGQAPVLVIYGKNNRPSGIPDRFSGSSSGNTASLTITGAQAEDEADYYCNSRDSSGNHVVFGGGTKLTVLGAAAEQKLISEEDLNGAA
B2: S11 scFv (scFv)
scFv: B1 scFv with S104Y, G107F
notes: also called scFv S11
B3: S1 scFv (scFv)
scFv: B1 scFv with S104P, G107L
B4: Y1 scFv (scFv)
chain: EVQLVESGGGVVRPGGSLRLSCAASGFTFDDYGMSWVRQAPGKGLEWVSGINWNGGSTGYADSVKGRFTISRDNAKNSLYLQMNSLRAEDTAVYYCARMRAPVIWGQGTLVTVSRGGGGSGGGGSGGGGSSELTQDPAVSVALGQTVRITCQGDSLRSYYASWYQQKPGQAPVLVIYGKNNRPSGIPDRFSGSSSGNTASLTITGAQAEDEADYYCNSRDSSGNHVVFGGGTKLTVLGAAAEQKLISEEDLNGAA

Experiments:
[1] = biological target: T1, GPIb on human platelets (human, UniProt P07359 17-652); assay: FACS on human platelets
T1 construct: whole, on cells; also called GPIbα; platelet GPIb

[2] = biological target: T2, platelet GPIb, guinea pig (guinea pig platelets) (guinea pig); assay: FACS on guinea pig platelets
T2 construct: whole, on cells; also called guinea pig derived platelets

[3] = biological target: T3, CXCR4 point mutant Tyr-21 to alanine (UniProt P61073 1-352); assay: epitope mapping with tyrosine-to-alanine point mutants of CXCR4
T3 construct: also called CXCR4 Y21A

[4] = biological target: T4, human CCR5 on transfected L1.2 cells (human, UniProt P51681 1-352); assay: flow cytometry, L1.2 cells transfected with human CCR5
T4 construct: whole, on cells

[5] = biological target: T5, glycocalicin (UniProt P07359 17-506); assay: SPR (BIAcore 3000), glycocalicin immobilized on CM5 chip
T5 construct: domain: glycocalicin (the outer membrane portion derived from GPIb); also called purified glycocalicin; purified GPIbα

[6] = biological target: T1, GPIb on human platelets; assay: cell-based or functional assay

T1 sequence (P07359 17-652): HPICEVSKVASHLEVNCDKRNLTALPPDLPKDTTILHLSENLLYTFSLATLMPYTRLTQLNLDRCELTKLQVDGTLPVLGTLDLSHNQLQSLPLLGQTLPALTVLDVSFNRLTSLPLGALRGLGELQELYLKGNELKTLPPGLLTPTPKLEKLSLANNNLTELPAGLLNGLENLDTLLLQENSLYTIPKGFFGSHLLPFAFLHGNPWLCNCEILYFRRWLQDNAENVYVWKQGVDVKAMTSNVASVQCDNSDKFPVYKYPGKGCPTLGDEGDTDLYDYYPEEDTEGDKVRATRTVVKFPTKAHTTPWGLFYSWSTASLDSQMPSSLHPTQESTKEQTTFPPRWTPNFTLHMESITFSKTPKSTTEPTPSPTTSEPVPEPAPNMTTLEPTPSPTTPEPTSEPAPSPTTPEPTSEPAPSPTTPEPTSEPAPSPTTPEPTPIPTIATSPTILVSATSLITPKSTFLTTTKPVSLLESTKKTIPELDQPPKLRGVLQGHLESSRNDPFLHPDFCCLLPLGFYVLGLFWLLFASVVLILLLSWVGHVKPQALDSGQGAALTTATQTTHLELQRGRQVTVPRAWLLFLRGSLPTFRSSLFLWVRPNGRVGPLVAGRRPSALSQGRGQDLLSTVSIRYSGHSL
T5 sequence (P07359 17-506 limits assumed): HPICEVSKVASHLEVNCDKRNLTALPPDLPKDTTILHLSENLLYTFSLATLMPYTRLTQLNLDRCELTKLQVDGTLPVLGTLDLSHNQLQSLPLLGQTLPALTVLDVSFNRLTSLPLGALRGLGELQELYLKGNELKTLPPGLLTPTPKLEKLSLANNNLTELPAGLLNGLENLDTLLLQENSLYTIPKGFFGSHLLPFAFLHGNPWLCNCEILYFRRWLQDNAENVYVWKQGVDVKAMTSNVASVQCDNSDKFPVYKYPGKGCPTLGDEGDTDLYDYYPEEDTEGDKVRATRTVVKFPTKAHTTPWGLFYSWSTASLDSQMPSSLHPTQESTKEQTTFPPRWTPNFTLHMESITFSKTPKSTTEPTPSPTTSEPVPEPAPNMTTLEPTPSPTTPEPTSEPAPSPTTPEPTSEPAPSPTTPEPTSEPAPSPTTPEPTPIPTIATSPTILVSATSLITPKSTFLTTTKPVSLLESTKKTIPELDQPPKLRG
T3 sequence (P61073 other isoform, or with tags, fused parts or gaps mutant limits assumed): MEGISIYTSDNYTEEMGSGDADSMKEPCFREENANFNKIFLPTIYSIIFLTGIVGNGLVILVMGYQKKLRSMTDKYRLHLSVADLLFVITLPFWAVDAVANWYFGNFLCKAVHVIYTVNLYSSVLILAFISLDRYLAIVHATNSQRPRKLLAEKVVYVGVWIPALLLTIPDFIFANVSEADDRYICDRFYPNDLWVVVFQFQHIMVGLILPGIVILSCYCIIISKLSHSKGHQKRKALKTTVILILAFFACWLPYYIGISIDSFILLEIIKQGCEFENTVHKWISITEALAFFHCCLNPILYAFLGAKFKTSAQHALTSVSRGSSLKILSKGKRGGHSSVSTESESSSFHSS
T4 sequence (P51681 whole entry): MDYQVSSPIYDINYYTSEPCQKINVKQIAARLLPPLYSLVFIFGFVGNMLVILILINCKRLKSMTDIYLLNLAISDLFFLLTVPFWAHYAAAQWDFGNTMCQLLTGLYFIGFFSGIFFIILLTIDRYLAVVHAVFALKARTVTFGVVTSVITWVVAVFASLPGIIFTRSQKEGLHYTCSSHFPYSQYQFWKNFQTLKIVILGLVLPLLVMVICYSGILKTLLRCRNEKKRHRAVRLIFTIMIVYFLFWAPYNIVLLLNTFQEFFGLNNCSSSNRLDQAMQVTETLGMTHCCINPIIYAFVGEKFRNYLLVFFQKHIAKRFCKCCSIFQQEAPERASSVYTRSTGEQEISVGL

Row | Binder | fold binding capacity relative to Y1 [1] [fold] | fold binding capacity relative to Y1 [2] [fold] | binding result [3] | binding result [4] | Kd [5] [nM] | koff [5] [s⁻¹] | inhibition of ristocetin-induced, vWF-dependent platelet aggregation in washed platelets (IC50) [6] [nM]
1 | B1 | ~25 | ~25 |  |  |  |  | 
2 | B2 | ~25 | ~25 | no binding | binds |  |  | 
3 | B3 |  | ~25 |  |  |  |  | 
4 | B4 |  |  |  |  | 450 | 0.12 | 800

Source: patent US20080274100A1 (published 2008)
